# Assay results from US20220389120A1 (published 2022).
# T1: recombinant human Ang2 (Biolegend) (human, UniProt O15123 19-496)
# T1 chain: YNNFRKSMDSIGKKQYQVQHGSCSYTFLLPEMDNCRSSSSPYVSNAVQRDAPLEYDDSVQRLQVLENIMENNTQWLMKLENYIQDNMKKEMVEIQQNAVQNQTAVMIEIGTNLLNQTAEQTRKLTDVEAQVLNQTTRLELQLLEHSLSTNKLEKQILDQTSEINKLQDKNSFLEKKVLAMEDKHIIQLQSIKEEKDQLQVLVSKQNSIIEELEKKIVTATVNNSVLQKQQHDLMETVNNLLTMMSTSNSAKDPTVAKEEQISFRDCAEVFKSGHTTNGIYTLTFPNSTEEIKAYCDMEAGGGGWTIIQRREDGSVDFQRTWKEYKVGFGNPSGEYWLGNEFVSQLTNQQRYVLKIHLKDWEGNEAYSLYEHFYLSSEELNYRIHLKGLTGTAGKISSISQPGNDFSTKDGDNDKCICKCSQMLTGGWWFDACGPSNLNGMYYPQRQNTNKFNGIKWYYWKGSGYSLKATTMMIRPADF
# B1: ZA2-ld (protein)
# chain: SDTGRPFVEMYSEIPEIIHMTEGRELVIPCRVTSPNITVTLKKFPLDTLIPDGKRIIWDSRKGFIISNATYKEIGLLTCEATVNGHLYKTNYLTHRQTNTIIDVVLSPSHGIELSVGEKLVLNCTARTELNVGIDFNWEYPSSKHQHKKLVNRDLKTQSGSEMKKFLSTLTIDGVTRSDQGLYTCAASSGLMTKKNSTFVRVHEKESKYGPPCPPCPAPEFLGGPSVFLFPPKPKDTLMISRTPEVTCVVVDVSQEDPEVQFNWYVDGVEVHNAKTKPREEQFNSTYRVVSVLTVLHQDWLNGKEYKCKVSNKGLPSSIEKTISKAKGQPREPQVYTLPPSQEEMGGAQTNFMPMDDLEQRLYEQFILQQGGGGSGGGGSGGGGSGGGGSTNFMPMDDLEQRLYEQFILQQGLETKNQVSLTCLVKGFYPSDIAVEWESNGQPENNYKTTPPVLDSDGSFFLYSRLTVDKSRWQEGNVFSCSVMHEALHNHYTQKSLSLSLGK
# B2: A2Z-ld (Fc fusion)
# chain: ESKYGPPCPPCPAPEFLGGPSVFLFPPKPKDTLMISRTPEVTCVVVDVSQEDPEVQFNWYVDGVEVHNAKTKPREEQFNSTYRVVSVLTVLHQDWLNGKEYKCKVSNKGLPSSIEKTISKAKGQPREPQVYTLPPSQEEMGGAQTNFMPMDDLEQRLYEQFILQQGGGGSGGGGSGGGGSGGGGSTNFMPMDDLEQRLYEQFILQQGLETKNQVSLTCLVKGFYPSDIAVEWESNGQPENNYKTTPPVLDSDGSFFLYSRLTVDKSRWQEGNVFSCSVMHEALHNHYTQKSLSLSLGKGGGGGAQSDTGRPFVEMYSEIPEIIHMTEGRELVIPCRVTSPNITVTLKKFPLDTLIPDGKRIIWDSRKGFIISNATYKEIGLLTCEATVNGHLYKTNYLTHRQTNTIIDVVLSPSHGIELSVGEKLVLNCTARTELNVGIDFNWEYPSSKHQHKKLVNRDLKTQSGSEMKKFLSTLTIDGVTRSDQGLYTCAASSGLMTKKNSTFVRVHEKLE
# B3: ZA2-ls (protein)
# chain: SDTGRPFVEMYSEIPEIIHMTEGRELVIPCRVTSPNITVTLKKFPLDTLIPDGKRIIWDSRKGFIISNATYKEIGLLTCEATVNGHLYKTNYLTHRQTNTIIDVVLSPSHGIELSVGEKLVLNCTARTELNVGIDFNWEYPSSKHQHKKLVNRDLKTQSGSEMKKFLSTLTIDGVTRSDQGLYTCAASSGLMTKKNSTFVRVHEKESKYGPPCPPCPAPEFLGGPSVFLFPPKPKDTLMISRTPEVTCVVVDVSQEDPEVQFNWYVDGVEVHNAKTKPREEQFNSTYRVVSVLTVLHQDWLNGKEYKCKVSNKGLPSSIEKTISKAKGQPREPQVYTLPPSQEEMGGAQTNFMPMDDLEQRLYEQFILQQGLETKNQVSLTCLVKGFYPSDIAVEWESNGQPENNYKTTPPVLDSDGSFFLYSRLTVDKSRWQEGNVFSCSVMHEALHNHYTQKSLSLSLGK
# B4: GS01-A (other)
# heavy: QVQLVQSGAEVKKPGASVKVSCKASGYTFTSYYIHWVRQAPGQGLEWMGWIFPGSGNSKYNENFKGRVTLTADTSTSTVYMELSSLRSEDTAVYYCASETYDYGDYWGQGTLVTVSSASTKGPSVFPLAPCSRSTSESTAALGCLVKDYFPEPVTVSWNSGALTSGVHTFPAVLQSSGLYSLSSVVTVPSSSLGTKTYTCNVDHKPSNTKVDKRVESKYGPPCPPCPAPEFLGGPSVFLFPPKPKDTLMISRTPEVTCVVVDVSQEDPEVQFNWYVDGVEVHNAKTKPREEQFNSTYRVVSVLTVLHQDWLNGKEYKCKVSNKGLPSSIEKTISKAKGQPREPQVYTLPPSQEEMGGAQTNFMPMDDLEQRLYEQFILQQGGGGSGGGGSGGGGSGGGGSTNFMPMDDLEQRLYEQFILQQGLETKNQVSLTCLVKGFYPSDIAVEWESNGQPENNYKTTPPVLDSDGSFFLYSRLTVDKSRWQEGNVFSCSVMHEALHNHYTQKSLSLSLGKGGGGSGGGGSGGGGSGGGGSEVQLVESGGGLVQPGGSLRLSCAASGFTISDYWIHWVRQAPGKGLEWVAGITPAGGYTYYADSVKGRFTISADTSKNTAYLQMNSLRAEDTAVYYCARFVFFLPYAMDYWGQGTLVTVSSGGGGSGGGGSGGGGSGGGGSDIQMTQSPSSLSASVGDRVTITCRASQDVSTAVAWYQQKPGKAPKLLIYSASFLYSGVPSRFSGSGSGTDFTLTISSLQPEDFATYYCQQGYGNPFTFGQGTKVEIK
# light: DIQMTQSPSFLSASVGDRVTITCKASQNVGTNVAWYQQKPGKAPKALIYSASYRYSGVPSRFSGSGSGTEFTLTISSLQPEDFATYYCQQYYSYPYTFGQGTKLEIKRTVAAPSVFIFPPSDEQLKSGTASVVCLLNNFYPREAKVQWKVDNALQSGNSQESVTEQDSKDSTYSLSSTLTLSKADYEKHKVYACEVTHQGLSSPVTKSFNRGEC
# Legend:
# [1] = molecular target: T1, recombinant human Ang2 (Biolegend); experiment: Ang2-Tie2 blocking ELISA; Test 3
# [2] = molecular target: T1, recombinant human Ang2 (Biolegend); experiment: Ang2-Tie2 blocking ELISA; Test 2
# [3] = molecular target: T1, recombinant human Ang2 (Biolegend); experiment: Ang2-Tie2 blocking ELISA; Test 1
# PD-1 = PD-1 (UniProt Q15116 25-167); experiment: PD-1 blocking assay
# Chain of PD-1 (Q15116 25-167): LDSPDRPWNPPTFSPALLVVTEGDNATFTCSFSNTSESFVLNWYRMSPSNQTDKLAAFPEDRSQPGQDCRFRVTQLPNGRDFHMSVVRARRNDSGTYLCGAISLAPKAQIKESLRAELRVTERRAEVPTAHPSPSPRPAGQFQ
# [4] = molecular target: T1, recombinant human Ang2 (Biolegend); experiment: ELISA
Binder,IC50 [1] [nM],IC50 [2] [nM],IC50 [3] [nM],IC50 (PD-1) [nM],EC50 [4] [µg/mL]
B1,0.03,0.2,–,–,–
B2,–,0.21,0.19,–,–
B3,0.1,–,–,–,–
B4,–,–,–,0.272,0.211
